Test results published in article PMC4180932, “Reorganisation of the Salivary Mucin Network by Dietary Components: Insights from Green Tea Polyphenols” (PLOS One, 2014).

Tests used:
[1] = target: CT5B, recombinant C-terminal construct of MUC5B (D4-B-C-CK domains, residues 4958-5765) (human); test: SDS-PAGE; purified recombinant protein seen as monomer and dimer; gels of gradient fractions, silver stained (NT5B) or Coomassie stained (CT5B)
[2] = target: the molecule itself; test: as above

Molecule | stoichiometry N [1] | stoichiometry N [2]
CT5B, recombinant C-terminal construct of MUC5B (D4-B-C-CK domains, residues 4958-5765) (domain or fragment) | 2 | –
NT5B, recombinant N-terminal construct of MUC5B (D1-D2-D′-D3 domains, residues 26-1304) (domain or fragment, human, UniProt Q9HC84 26-1304, looked up, MUC5B, human, D1-D2-D′-D3 domains, residues 26-1304; Purified as a mixture of monomer and dimer (75 and 150 kDa as printed); also called N-terminal MUC5B protein) QGPVEPSWENAGHTMDGGAPTSSPTRRVSFVPPVTVFPSLSPLNPAHNGRVCSTWGDFHYKTFDGDVFRFPGLCNYVFSEHCRAAYEDFNVQLRRGLVGSRPVVTRVVIKAQGLVLEASNGSVLINGQREELPYSRTGLLVEQSGDYIKVSIRLVLTFLWNGEDSALLELDPKYANQTCGLCGDFNGLPAFNEFYAHNARLTPLQFGNLQKLDGPTEQCPDPLPLPAGNCTDEEGICHRTLLGPAFAECHALVDSTAYLAACAQDLCRCPTCPCATFVEYSRQCAHAGGQPRNWRCPELCPRTCPLNMQHQECGSPCTDTCSNPQRAQLCEDHCVDGCFCPPGTVLDDITHSGCLPLGQCPCTHGGRTYSPGTSFNTTCSSCTCSGGLWQCQDLPCPGTCSVQGGAHISTYDEKLYDLHGDCSYVLSKKCADSSFTVLAELRKCGLTDNENCLKAVTLSLDGGDTAIRVQADGGVFLNSIYTQLPLSAANITLFTPSSFFIVVQTGLGLQLLVQLVPLMQVFVRLDPAHQGQMCGLCGNFNQNQADDFTALSGVVEATGAAFANTWKAQAACANARNSFEDPCSLSVENENYARHWCSRLTDPNSAFSRCHSIINPKPFHSNCMFDTCNCERSEDCLCAALSSYVHACAAKGVQLSDWRDGVCTKYMQNCPKSQRYAYVVDACQPTCRGLSEADVTCSVSFVPVDGCTCPAGTFLNDAGACVPAQECPCYAHGTVLAPGEVVHDEGAVCSCTGGKLSCLGASLQKSTGCAAPMVYLDCSNSSAGTPGAECLRSCHTLDVGCFSTHCVSGCVCPPGLVSDGSGGCIAEEDCPCVHNEATYKPGETIRVDCNTCTCRNRRWECSHRLCLGTCVAYGDGHFITFDGDRYSFEGSCEYILAQDYCGDNTTHGTFRIVTENIPCGTTGTTCSKAIKLFVESYELILQEGTFKAVARGPGGDPPYKIRYMGIFLVIETHGMAVSWDRKTSVFIRLHQDYKGRVCGLCGNFDDNAINDFATRSRSVVGDALEFGNSWKLSPSCPDALAPKDPCTANPFRKSWAQKQCSILHGPTFAACRSQVDSTKYYEACVNDACACDSGGDCECFCTAVAAYAQACHDAGLCVSWRTPDTCPLFCDFYNPHGGCEWHYQPCGAPCLKTCRNPSGHCLVDLPGLEGCYPKCPPSQPFFNEDQMKCVAQCGCYDKDGNYYDVGARVPTAENCQSCNCTPSGIQCAHSLEACTCTYEDRTYSYQDVIYNTTDGLGACLIAICGSNGTIIRKAVACPG | – | 2
